Source: article PMC6215006

What follows are substances tested against recombinant human macrophage-colony stimulating factor (human) (UniProt P09603).
Sequence of UniProt P09603 (P09603 36-181): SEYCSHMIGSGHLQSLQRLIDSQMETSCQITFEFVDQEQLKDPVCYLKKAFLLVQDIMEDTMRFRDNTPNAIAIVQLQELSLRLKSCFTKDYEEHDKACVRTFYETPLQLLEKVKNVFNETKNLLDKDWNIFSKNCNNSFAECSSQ

Inhibition of the differentiation of bone marrow-derived osteoclast precursors into osteoclasts with M-CSF (30 ng/mL) and RANKL (100 ng/mL), TRAP(+) MNCs; maximum inhibitory dose, 1 nM:
mouse syndecan-2 ectodomain from HEK293E cells (from UniProt P43407 19-145) (domain or fragment)
mouse syndecan-4 ectodomain from HEK293E cells (from UniProt O35988 24-145) (domain or fragment)
mouse syndecan-1 ectodomain from HEK293E cells (from UniProt P18828 23-255) (domain or fragment)
mouse syndecan-3 ectodomain from HEK293E cells (from UniProt Q64519 45-387) (domain or fragment)
